Measurements as given in article PMC6905151.
Where two headings read alike, the source gives them in different places. Values belong to the substance of their own block, whether it stands above or below them.

What was measured:
IgM (Homo sapiens) = IgM (Homo sapiens) (UniProt P01871); conditions: cited from earlier work
[1] = molecular target: IgM-Fc (Fcμ2-4) mutant M1 (K361D/D416R) (human); experiment: SEC-MALS; SEC-MALLS on Superdex 200 Increase 5/150 with in-line miniDAWN detector and refractometer; peaks of the homodimeric Fcμ2-4 proteins from SEC
[2] = molecular target: IgM-Fc (Fcμ2-4) mutant M2 (Q510R) (human); experiment: as above
[3] = molecular target: IgM-Fc (Fcμ2-4) mutant M3 (D340S/Q341G/D342S/T343S) (human); experiment: as above
[4] = molecular target: IgM-Fc (Fcμ2-4) wild-type, dimer of Cμ2-Cμ3-Cμ4 domains (human); experiment: as above
[5] = molecular target: Fcμ3-4, dimer of Cμ3-Cμ4 domains (human); experiment: SPR; Biacore T200, 25 °C, 0.01 M HEPES, 0.15 M NaCl, 0.005% Surfactant P20, pH 7.4; IgM, IgM-Fc, Fcμ3-4 or IgM-Fc mutants immobilised on CM5 by amine coupling; analyte sIgFcμR 0.25 μM to 12 μM; steady state, 1:1 binding model
Fcμ3-4, dimer of Cμ3-Cμ4 domains (human), sequence (P01871 other isoform, or with tags, fused parts or gaps): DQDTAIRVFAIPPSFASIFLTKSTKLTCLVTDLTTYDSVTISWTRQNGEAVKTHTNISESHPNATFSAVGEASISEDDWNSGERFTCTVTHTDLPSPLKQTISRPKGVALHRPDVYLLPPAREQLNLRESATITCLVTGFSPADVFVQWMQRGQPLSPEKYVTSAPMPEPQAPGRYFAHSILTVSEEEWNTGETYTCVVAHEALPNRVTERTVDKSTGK

[6] = molecular target: purified serum IgM (whole pentameric IgM) (human); experiment: as above
[7] = molecular target: IgM-Fc (Fcμ2-4) wild-type, dimer of Cμ2-Cμ3-Cμ4 domains (human); experiment: as above
[8] = molecular target: IgM-Fc (Fcμ2-4) wild-type, dimer of Cμ2-Cμ3-Cμ4 domains (human); experiment: as above; remark: listed apart in the source
[9] = molecular target: IgM-Fc (Fcμ2-4) mutant M3 (D340S/Q341G/D342S/T343S) (human); experiment: as above

FcμR (cell surface), sequence (O60667 17-390): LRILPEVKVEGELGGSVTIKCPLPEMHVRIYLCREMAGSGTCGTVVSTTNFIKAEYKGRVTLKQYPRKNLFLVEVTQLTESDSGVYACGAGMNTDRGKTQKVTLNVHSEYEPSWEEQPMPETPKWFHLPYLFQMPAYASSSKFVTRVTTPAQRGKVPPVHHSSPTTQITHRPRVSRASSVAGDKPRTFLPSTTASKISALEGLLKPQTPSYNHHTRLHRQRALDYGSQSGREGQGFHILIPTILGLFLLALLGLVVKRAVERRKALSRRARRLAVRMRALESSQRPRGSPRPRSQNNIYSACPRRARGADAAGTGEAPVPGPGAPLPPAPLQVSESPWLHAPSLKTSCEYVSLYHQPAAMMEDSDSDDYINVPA
IgM (Homo sapiens), sequence (P01871 whole entry): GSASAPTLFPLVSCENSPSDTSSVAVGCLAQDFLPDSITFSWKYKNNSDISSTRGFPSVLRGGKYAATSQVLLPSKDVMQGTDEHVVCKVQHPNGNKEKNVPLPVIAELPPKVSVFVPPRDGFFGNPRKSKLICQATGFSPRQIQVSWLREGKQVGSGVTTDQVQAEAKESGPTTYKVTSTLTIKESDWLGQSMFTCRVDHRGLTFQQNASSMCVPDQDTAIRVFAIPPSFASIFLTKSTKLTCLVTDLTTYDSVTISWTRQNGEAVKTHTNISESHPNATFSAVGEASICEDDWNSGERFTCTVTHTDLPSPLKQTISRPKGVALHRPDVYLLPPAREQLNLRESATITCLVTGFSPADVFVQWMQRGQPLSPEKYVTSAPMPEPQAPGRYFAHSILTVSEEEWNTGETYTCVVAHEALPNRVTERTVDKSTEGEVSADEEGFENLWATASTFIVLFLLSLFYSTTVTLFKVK

Substance: FcμR (cell surface) (from UniProt O60667)
Kd (IgM (Homo sapiens)): 10 nM

Substance: IgM-Fc (Fcμ2-4) mutant M1 (K361D/D416R) (domain or fragment)
stoichiometry N [1]: 2

Substance: IgM-Fc (Fcμ2-4) mutant M2 (Q510R) (domain or fragment)
stoichiometry N [2]: 2

Substance: soluble extracellular immunoglobulin-like domain of FcμR (domain or fragment)
stoichiometry N (sIgFcμR per IgM-Fc homodimer) [5]: 2
Kd [6]: 2490 nM
stoichiometry N (sIgFcμR per IgM-Fc homodimer) [6]: 2
Kd [7]: 1150 nM
stoichiometry N (sIgFcμR per IgM-Fc homodimer) [7]: 2
Kd [8]: 1830 nM
Kd [9]: 1450 nM

Other lines, results leading:

stoichiometry N [3]: 2
Substance: IgM-Fc (Fcμ2-4) mutant M3 (D340S/Q341G/D342S/T343S) (domain or fragment)

stoichiometry N [4]: 2
Substance: IgM-Fc (Fcμ2-4) wild-type, dimer of Cμ2-Cμ3-Cμ4 domains (domain or fragment)
